Biological target: soluble gp34 wild type ectodomain, V5-His tagged (sgp34wt-V5-His) (HCMV strain AD169)
Experiment: blocking of sgp34wt binding to immobilized human IgG, ELISA

In the case of mouse IgG1 isotype antibody, the IC50 is reported as 9.69 µg/mL.
